assay: yeast display, Sf9 membrane polyspecificity reagent, FACS + sequencing; frameworks hold sequencing errors
Outline: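 Sorting gates, low and high (top ~1%), were placed on anti-HA fluorescence to track expression and on streptavidin fluorescence to track reagent binding. A clone's polyreactivity label is taken from the gate it came out of. The reagent was 10% biotinylated, detergent-solubilized Sf9 membrane, applied for 1 hour at 4 °C to galactose-induced yeast display cells.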

Row | Sequence | polyreactivity (PSR sort gate)
1 | QVQLVESGGGLVQAGGSLRLSCAASGSSFVSYTMGWYRQAPGKERELVAAISYNGARTYYADSVKGRFTISRDNAKNTVYLQMNSLKPEDTAVYYCARRYYSQYDYWGQGTQVTVSS | high polyreactivity
2 | QVQLVESGGGLVQAGGSLRLSCAASGSSFYYYTMGWYRQAPGKEMELVAAITYSGGSTRYADSVKGRFTISRDNAKNTVYLQMNSLKPEDTAVYYCAAELTEWTNGFDYWGQGTQVTVSS | high polyreactivity
3 | QVQLVESGGGLVQAGGSLRLSCAASGSSKLMLWDGIDRRLGKKGSWLPLFVLVVLRNYSDSVKGRFTISRDNAKNTVYLQMNSLKPEDTAVYYCAATPIGSGGWGDYWGQGTQVTVSS | low polyreactivity
4 | QVQLVESGGGLVQAGGSLRLSCAASGSSLNLNAMGWYRQAPGKERELVAAIRWGGGSTYYADSVKGRFTISRDNAKNTDYLQMNSLKPEDTAVYYCAKAYHLGLGYRFDYWGQGTQVTVSS | high polyreactivity
5 | QVQLVESGGGLVQAGGSLRLSCAASGSSLWYNTMGWYRQAPGKERELVATISGSGANTYYADSVKGRFTISRDNAKNTDYLQMNSLKPEDTAGYYCAAVYRRWGYSSEYDYWGQGTQVTVSS | high polyreactivity
6 | QVQLVESGGGLVQAGGSLRLSCAASGSSRYAMGWYTPAPGKERELVAVITLSGGITYADSVKGRFTISRDNAKNTVYLQMKSLKPEDTAVYYCNADYGDWPTGGDYWGQGTQVTVSS | low polyreactivity
7 | QVQLVESGGGLVQAGGSLRLSCAASGSTCAANAMGWYRQAPGKERELVAGISESVDRTYADSVKGRFTISRDNAKNTVYLQMNSLKPEDTAVYYCKVGANVYLLYFPSRGGVYDYGYWGQGTQVTVSS | low polyreactivity
8 | QVQLVESGGGLVQAGGSLRLSCAASGSTCSVNAMGWYRQAPGKERELVAAITYSGGSTYYADSVKGRFTISRDNAKNTVYLQMNSLKPEDTAVYYCNRDTRYYWKRYGYWGQGTQVTVSS | high polyreactivity
9 | QVQLVESGGGLVQAGGSLRLSCAASGSTDNNAMGWYRQAPGKERELVAAIRFRSGSTYYADSVNGRFTISRDNAKNTVYLQMNSLKPEDTAVYYCAAPGSPYGYWGQGTQVTVSS | high polyreactivity
10 | QVQLVESGGGLVQAGGSLRLSCAASGSTFAAYAKGWYRQAPGKERELVAAISRSGGTTYYADSVKGRFTISRDNAKNTVYLQMNSLKPEDTAVYYCAAEQWYDNYLEYDYWGQGTQVTVSS | high polyreactivity
11 | QVQLVESGGGLVQAGGSLRLSCAASGSTFACNGMGWYRQAPGKERELVAGIDVTGGSTYYADSVKGRFTISRDNAKNTDYLQMNSMKPEDTAVYYCNARYVYHSSFAGFDYWGQGTQVTVSS | low polyreactivity
12 | QVQLVESGGGLVQAGGSLRLSCAASGSTFADYTMGWYRQAPGKERELSTSYADSVKGRFTISRDNAKNTVYLQMNSLKPEDTAVYYCAAETFYDYGGYDYWGQGTQVTVSS | low polyreactivity
13 | QVQLVESGGGLVQAGGSLRLSCAASGSTFAEYAMGLYRQAPGKERELVAAISRRGGSTYYADSVKGRFTFSRDNAKYSVYLQMNSLKPEDTAVYYCATDGYTPYRWLWWLMDYWGQGTQVTVSS | high polyreactivity
14 | QVQLVESGGGLVQAGGSLRLSCAASGSTFAFNAMGWYRQAPGKERELVAAISTSGGDTYYADSVKGRFTISRDNAKNTVYLQMNSLKPEDTAVYYCGGDYQVPGGSWMDYWGQGTQVTVSS | high polyreactivity
15 | QVQLVESGGGLVQAGGSLRLSCAASGSTFAFYAMGWYRQAPGKERELVAAINLGGGSTYYADSVKGRFTISRDNAKNTVYLQMNSLKPEDTAVYYCAADFWTFSWPVFDTYVYWGQGTQVTVSS | low polyreactivity
16 | QVQLVESGGGLVQAGGSLRLSCAASGSTFAFYAMGWYRQAPGKERELVAAISSSGARTYYADSVKGRFTISRYNAKNTVYLQMNSLKPEDTAVYYCAAAFYRLYITSYYYWGQGTQVTVSS | high polyreactivity
17 | QVQLVESGGGLVQAGGSLRLSCAASGSTFAGHAMGWSRQAPGKERELVAAITFSGGRTDYADSVKGRFTISRDNAKNTVYLQMNSLIPEDTAVYYCAAPADDTVHYQNYYWGQGTQVTVSS | low polyreactivity
18 | QVQLVESGGGLVQAGGSLRLSCAASGSTFAGNAMGWYRQAPGKERELVAAISGSGGITYYADSVKGRFTISRDNAKNTVYLQMNSLKPEDTAVYYCNAYYWFSRYGYWGQGTQVTVSS | high polyreactivity
19 | QVQLVESGGGLVQAGGSLRLSCAASGSTFAGYAMGWYRQAPGKERELVAAISRRGGSTYYADSVKGRFTISRDNAKNTVYLQMNSLKPEDTAVYYCNRDKYLRDPDYDYWGQGTQVTVSS | low polyreactivity
20 | QVQLVESGGGLVQAGGSLRLSCAASGSTFAGYVMGWYRQAPGKERELVAAISRSGGSTYYADSVKGRFTISRDNAKNTVYLQMNSLKPEDTAVYYCAARNSPGFPGDYWGHGTQVTVSS | high polyreactivity
21 | QVQLVESGGGLVQAGGSLRLSCAASGSTFAGYVMGWYRQAPGKERELVAAISRSGGSTYYADSVKGRFTISRDNAKNTVYLQMNSLKPEDTAVYYCAARNSPGLPGDYWGQGTQVTVSS | high polyreactivity
22 | QVQLVESGGGLVQAGGSLRLSCAASGSTFAIDAMGWDRQAPGQDRELVASISGGSTNYADSVKGRVTISRDKAKNTVDLQRNSLKPEDTAVYYCAARGALQHWYRYDYWGQGTQGTVSS | low polyreactivity

Row | Sequence | polyreactivity (PSR sort gate)
23 | QVQLVESGGGLVQAGGSLRLSCAASGSTFAINARGWYRQAPGKERELVAAISSSGSTNYADSVKGRFTISRDNAKITVYLQMNSLKPEDTAVYYCAATGYRVYGFEFGYWGQGTQVTVSS | low polyreactivity
24 | QVQLVESGGGLVQAGGSLRLSCAASGSTFAKNAMGWYRQAPGKERELVAAISRGGNTYYADSVKGRFTISRDNAKNTVYLHMNSLKPEDTAVYYCAKLPYTRTYLGSLYDYWGQGTQVTVSS | high polyreactivity
25 | QVQLVESGGGLVQAGGSLRLSCAASGSTFAKYAMGWYRQAPGKERELVAVITSGGSTYYADSVKGRFTISRDNAKNTVYLQMNSLKPEDTAVYYCAAAVRAWARRYDYWGQGTQVTVSS | high polyreactivity
26 | QVQLVESGGGLVQAGGSLRLSCAASGSTFALNAMGWYRQAPGKERELVADINYIGDSTYYADSVKGRFTISRDNAKNTVYLLMNSLKPEDTAVYYCAAKSIIRPYAPRRDDMDYWGQGTQVTVSS | low polyreactivity
27 | QVQLVESGGGLVQAGGSLRLSCAASGSTFAPNAMGWYRQAPGKEREFVATISASGGYTYYADSVKGRFTISRDNAKNTVYLQMNSLKPEDTAVYYCYAVWRVGRQLSQAKIPYDYWGQGTQVTVSS | low polyreactivity
28 | QVQLVESGGGLVQAGGSLRLSCAASGSTFAPNAMGWYRQAPGKERELVAAISSGGDSTNYADSVKGRFTISRDNAKNTVYLQMNSLKPEDTAVYYCAHGYWFVAYDYWGQGTQVTVSS | low polyreactivity
29 | QVQLVESGGGLVQAGGSLRLSCAASGSTFAPNAMGWYRQAPGKERELVAVITRSVGSTYYADSVKGRFTISRDNSKNTVYLKMNSLKPEDTAVYFCAADYLRQDDYVALDYWGQGTQVTVSS | low polyreactivity
30 | QVQLVESGGGLVQAGGSLRLSCAASGSTFAQNAMGWYILAPGKERELVAAISRRGTITNYADSVKGRFTISRDNEKITVYLQMYSLKPEDTAVYYCATRSWLLGIQGGYWGQGTQVTVSS | high polyreactivity
31 | QVQLVESGGGLVQAGGSLRLSCAASGSTFARNAMGWYRQAPGKEREFVATISSSGGRTYYADSVKGRFTISRDIAKNTVYLQMNSLNPEDTAVYYCNKALRTYPLFYYWGQGTQVTVSS | high polyreactivity
32 | QVQLVESGGGLVQAGGSLRLSCAASGSTFARNVMGWYRQAPGKERELVAAISWRGGRTYYADSVKGRFTISRDNAKNTVYLQMNSLKPEDTAVYYCAAGRSFRGSYWYEYWGQGTKVTVSS | high polyreactivity
33 | QVQLVESGGGLVQAGGSLRLSCAASGSTFARYAMGWYRQAPGKERELVAAITWSGGSTYYADSVKGRFTISRDNAKNTVYLQMNSLKPEDTAVYYCAARRRVGYYWGQGTQVTVSS | high polyreactivity
34 | QVQLVESGGGLVQAGGSLRLSCAASGSTFASYAMGWYRQAPGKERELVAAISSSGARTYYADSVKGRFTISRDNAKNTVYLQMNSLKPEDTAVYYCATDSKITETSLRYDYWGQGTQVTVSS | high polyreactivity
35 | QVQLVESGGGLVQAGGSLRLSCAASGSTFATYAMGWYRQAPGKERELVAAITRSGGITYYADSVKGRFTISRDNAKNTVYLQMNSLKPEDNAVYYCAKQYKWYGSRFYYWGQGTQVTVSS | high polyreactivity
36 | QVQLVESGGGLVQAGGSLRLSCAASGSTFATYAMGWYRQAPGKERELVAVITLGGRTYYADSVKGRFTISRDNAKNTVYLQMNSLKPEDTAVYYCAAKAYTYYARIGFDYWGQGTQVTVSS | high polyreactivity
37 | QVQLVESGGGLVQAGGSLRLSCAASGSTFATYTMGWYRQAPGKERELVAAITRGSNTYYADSVKGRFTISRDNAKNTVDLQMNSLKPEHTAVYYCAAGYSGYRKYNSWGQGTQVTVSS | high polyreactivity
38 | QVQLVESGGGLVQAGGSLRLSCAASGSTFAVIVMGWYRQAPGKERELVATITYRDGRTYYADSVKGRFTISRDNAKNTVYLQMNSLKPEDTAVYYCAADDEYKQEAEMDSWGQGTQVTVSS | low polyreactivity
39 | QVQLVESGGGLVQAGGSLRLSCAASGSTFAVNAMGWYRQAPGKERELVAAITGSGGSTYYADSVKGRFTISRDNAKNTVYLQMNSLKPEDTAVYYCAAYRRYGYYYWGQGTQVTVSS | low polyreactivity
40 | QVQLVESGGGLVQAGGSLRLSCAASGSTFAVNVMGWYRQAPGKERELVATITYRDGRTYYADSVKGRFTISRDIAKYTVFLQMNSLKPEDTAVYYCAADDEYTQEAEMDSWGQGTQVTVSS | low polyreactivity
41 | QVQLVESGGGLVQAGGSLRLSCAASGSTFAVNVMGWYRQAPGKERELVATITYRDGRTYYADSVKGRFTISRDNAKNTVYLQMNSLKPEDTAVYYCAADDEYKQEAEMDSWGQGTQVTVSS | low polyreactivity
42 | QVQLVESGGGLVQAGGSLRLSCAASGSTFAVYAMGWSRKAPGKERELVATIRWSAGRTYYADSVKGRFTISRDNAKNTVYLQMNSLKPEDTAVYYCAARTWGQSTYGQGLDYWGQGTQVTVSS | high polyreactivity
43 | QVQLVESGGGLVQAGGSLRLSCAASGSTFAVYAMGWYRQAPGKERELVAAITRGDRTYYADSVKGRFTISRDNAKNTVYLQMNSLKPEDTAVYYCAAGYYRLWVRYDYWGQGTQVTVSS | low polyreactivity

— the nanobody polyreactivity screen of Harvey et al. (2022)
